From the RNAGym collection of RNA variant scans (doi:10.1073/pnas.2313332121)
Variants at the floor of the assay were thinned out.

B1: TPR 5TU (parent)
chain: GGAUCUUCUCGAUCUAACAAAAAAGACAAAUCUGCCACAAAGCUUGAGAGCAUCUUCGGAUGCAGAGGCGGCAGCCUUCGGUGGCGCGAUAGCGCCAACGUUCUCAACUAUGACACGCAAAACGCGUGCUCCGUUGAAUGGAGUUUAUCAUG

Variants of: B1
Assay: polymerase ribozyme fitness, log enrichment relative to wild type (log ratio); higher = more active; in vitro selection for triplet polymerase activity
Procedure, shortened: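 Mutant libraries of both subunits of a heterodimeric triplet polymerase ribozyme were PCR-built, transcribed, and selected once in triplicate, with frozen incubation at −7 °C and capture of gel-excised extended constructs on streptavidin beads before RT-PCR. Illumina sequencing of input and output libraries was filtered to genotypes with ≥10 input reads and ≥1 read per output. Fitness is the logarithm of genotype enrichment over wild-type enrichment, using inverse-variance-weighted replicate averages. The logarithm is base 2.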

| Variant | polymerase ribozyme fitness (log ratio) |
| --- | --- |
| GGAUCUUCUCGAUCUAACAAAAAAGACAAAUCUGCCACAAAGCUUGAGAGCAUCUUCGGAUGCAGAGGCGGCAGCCUUCGGUGACGCGAUAGCGCCAACGUUCUCAACUAUGACACGCAAAACGCGUGCUCCCUUGAAUGGAGUUUAUCAUG | -1.78 |
| GGAUCUUCUCGAUCUAACAAAAAAGACAAAUCUGCCACAAAGCUUGAGAGCAUCUUCGGAUGCAGAGGCGGCAGCCUUCGGUGACGCGAUAGCGACAACGUUCCCAACUAUGACACGCAAAACGCGUGCUCCGUUGAAUGGAGUUUAUCAUG | -0.367 |
| GGAUCUUCUCGAUCUAACAAAAAAGACAAAUCUGCCACAAAGCUUGAGAGCAUCUUCGGAUGCAGAGGCGGCAGCCUUCGGUGACGCAAUAGCGCCAACGUUCUCAACUAUGACACGCAAAACGCGUGCUCCGUUGAAUGGAGUUUAGCAUG | ≤ -4.2 |
| GGAUCUUCUCGAUCUAACAAAAAAGACAAAUCUGCCACAAAGCUUGAGAGCAUCUUCGGAUGCAGAGGCGGCAGCCUUCGGUGUCGCGUUAGCGCCAACGUUCUCAACUAUGACACGCAAAACGCUUGCUCCGUUGAAUGGAGUUUAUCAUG | -1.58 |
| GGAUCUUCUCGAUCUAACAAAAAAGACAAAUCUGCCACAAAGCUUGAGAGCAUCUUCGGAUGCAGAGGCGGCAGCCUUCGGUGUCGCGAUAGCGGCAACGUUCUCAACUAUGACACGCAAAUCGCGUGCUCCGUUGAAUGGAGUUUAUCAUC | -3.55 |
| GGAUCUUCUCGAUCUAACAAAAAAGACAAAUCUGCCACAAAGCUUGAGAGCAUCUUCGGAUGCAGAGGCGGCAGCCUUCGGUGACGCGAUUGCGCCAACGUUCUCAACUAUGACACGCAAAACGCGUGCUCCGUUGAAUGGAGUUUAUCAUG | ≤ -4.2 |
| GGAUCUUCUCGAUCUAACAAAAAAGACAAAUCUGCCACAAAGCUUGAGAGCAUCUUCGGAUGCAGAGGCGGCAGCCUUCGGUGUCGCGAUAGCGCCAACGUUCUCAACUAUGACACGCAUAACGCGUGCUCCGUUGAAUGGAGUUUAUCAUG | -2.07 |
| GGAUCUUCUCGAUCUAACAAAAAAGACAAAUCUGCCACAAAGCUUGAGAGCAUCUUCGGAUGCAGAGGCGGCAGCCUUCGGUGACGCGAUAGCGCCAACGUUCUCAACUAUGACACGUAAAACGCGUGCUCCGUUGAAUGGAGUUUAUCAUG | -0.13 |
| GGAUCUUCUCGAUCUAACAAAAAAGACAAAUCUGCCACAAAGCUUGAGAGCAUCUUCGGAUGCAGAGGCGGCAGCCUUCGGUGACGCGAUAGCGCCUACGUUCUCAACUAUGACACGCAAAACGCGUGCUCCGUUGAAUGGAGUUCAUCAUG | -0.418 |
| GGAUCUUCUCGAUCUAACAAAAAAGACAAAUCUGCCACAAAGCUUGAGAGCAUCUUCGGAUGCAGAGGCGGCAGCCUUCGGUGACGCGAUAGCGCCAACGUUCUCAACUAUGACACGCAAAACGCGUGCUCCGUUGAAUGGAGUUUAGCAUG | -3.25 |
| GGAUCUUCUCGAUCUAACAAAAAAGACAAAUCUGCCACAAAGCUUGAGAGCAUCUUCGGAUGCAGAGGCGGCAGCCUUCGGUGUCGCGAUAGCGUCAACGUUCUCAACUAUGACACGCAAAACGCGUGCUCCGUUGAAUGGACUUUAUCAUG | -3.33 |
| GGAUCUUCUCGAUCUAACAAAAAAGACAAAUCUGCCACAAAGCUUGAGAGCAUCUUCGGAUGCAGAGGCGGCAGCCUUCGGUGCCGCGAUAGCGCCGACGUUCUCAACUAUGACACGCAAAACGCGUGCUCCGUUGAAUGGAGUUUAUCAUG | -1.95 |
| GGAUCUUCUCGAUCUAACAAAAAAGACAAAUCUGCCACAAAGCUUGAGAGCAUCUUCGGAUGCAGAGGCGGCAGCCUUCGGUGUCGCGAUAGCGCAAACGUUCUCAACUAUGACACGCAAAACGCGUGCUCCGUUGAAUGGAGUUUAUCAUG | -2.84 |
| GGAUCUUCUCGAUCUAACAAAAAAGACAAAUCUGCCACAAAGCUUGAGAGCAUCUUCGGAUGCAGAGGCGGCAGCCUUCGGUGCCGCGAUAUCGCCAACGUUCUCAACUAUGACACGCAAAACGCGUGCUCCGUUGAAUGGAGUUUAUCUUG | -2.39 |
| GGAUCUUCUCGAUCUAACAAAAAAGACAAAUCUGCCACAAAGCUUGAGAGCAUCUUCGGAUGCAGAGGCGGCAGCCUUCGGUGCCGCGAUAGCGCCAACGUUCUCAACUAUGACACGCAAAACGCCUGCUCCGUUGAAUGGAGUUUAUCAUG | -1.54 |
| GGAUCUUCUCGAUCUAACAAAAAAGACAAAUCUGCCACAAAGCUUGAGAGCAUCUUCGGAUGCAGAGGCGGCAGCCUUCGGUGUCGCGAUAGCGCCAACGUUCUCGACAAUGACACGCAAUACGCGUGCUACGUUGAAUGAAGUAUAUCAUG | ≤ -4.2 |
| GGAUCUUCUCGAUCUAACAAAAAAGACAAAUCUGCCACAAAGCUUGAGAGCAUCUUCGGAUGCAGAGGCGGCAGCCUUCGGUGACGCGAUAGCGCCAACGUUCUCAACUAUGACACGCAAAACGCGUGCUCCGUUGAAUUGAGUUUAUCAUG | -2.64 |
| GGAUCUUCUCGAUCUAACAAAAAAGACAAAUCUGCCACAAAGCUUGAGAGCAUCUUCGGAUGCAGAGGCGGCAGCCUUCGGUGACGCGAUAGCGCCAACGUUCUCAACUAUGACACGCAAAACGCGUGCUCCGUUGAAUAGAGUUUAUCAUG | -3.27 |
| GGAUCUUCUCGAUCUAACAAAAAAGACAAAUCUGCCACAAAGCUUGAGAGCAUCUUCGGAUGCAGAGGCGGCAGCCUUCGGUGACGCGAUACCGCCAACGUUCUCAACUAUGACACGCAAAACGCGUGCUCCGUUGAAUGGAGUUUAUCAUG | -3.25 |
